Assay results published in patent publication US20220016168A1, “METHODS OF USING CD27 ANTIBODIES AS CONDITIONING TREATMENT FOR ADOPTIVE CELL THERAPY” (Celldex Therapeutics, Inc., priority 2018, published 2022).

Tests used:
E.G7 cells = test: E.G7 tumor model with OT-I T-cell adoptive therapy; assay type: in vivo, mice; conditions: 100 μg i.p. day 8 or 20 μg day 17
[1] = target: T1, mouse CD27 on splenocytes (gated CD4+CD25+ Treg cells) of w.t. mice (mouse, UniProt P41272 24-250); test: flow cytometry, labeled mCD70-Fc (0.5 ug) on gated CD4+CD25+ Treg cells of w.t. mouse splenocytes
T1 construct: whole, on cells; also called mCD27
T1 sequence (looked up): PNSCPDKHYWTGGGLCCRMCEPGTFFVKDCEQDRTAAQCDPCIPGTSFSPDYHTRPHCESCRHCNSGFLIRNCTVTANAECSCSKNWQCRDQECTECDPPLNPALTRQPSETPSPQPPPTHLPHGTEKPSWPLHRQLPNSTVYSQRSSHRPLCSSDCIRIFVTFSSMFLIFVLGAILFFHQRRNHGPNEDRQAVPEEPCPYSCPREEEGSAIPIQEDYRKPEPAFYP
Source text: FMO stands for fluorescence minus one, reflecting background fluorescence on the same gated cells.

[2] = target: T2, CD27 extracellular domain fragment, amino acid residues 1-110, R87A mutation sequence, fused with a human … (human, UniProt P26842 21-130); test: ELISA, CD27 fragment captured by anti-flag Ab
T2 construct: Used as culture supernatant of transient transfection; also called CD27R87A; mutant CD27 fragment; not shown: human kappa chain at the N-terminus; flag-tag at the C-terminus
T2 chain: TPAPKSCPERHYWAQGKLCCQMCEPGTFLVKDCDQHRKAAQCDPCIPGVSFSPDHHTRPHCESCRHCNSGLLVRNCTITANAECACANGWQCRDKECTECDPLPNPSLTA

[3] = tested on: SIINFEKL-specific IFNγ spots; test: OVA immunisation ELISPOT (co-stimulatory/agonistic activity); assay type: in vivo; conditions: 5 mg OVA and 50 μg Ab on day 0, spleens 7 days later, hCD27+/-mCD27wt mice
Source text: Shown are […]-specific IFNγ spots number per spleen, n=4 or 5 mice per group (FIG. 9C). Data are from one representative experiment of two performed, *p<0.05, ***p<0.001, ****p<0.0001, indicating statistical significance compared to isotype control or between groups as specified by the horizontal line.
Spleens were collected 7 days later for ELISPOT analysis. Shown are […]-specific IFNγ spots number per spleen, n=5 mice per group (FIG. 10C). Data are from one representative experiment of two performed, *p<0.05, **p<0.01, indicating statistical significance compared to isotype control or between groups as specified by the horizontal line.

[4] = target: T3, human CD70-Fc binding to CD27 on CD4+CD25+ Treg cells (Homo sapiens, UniProt P26842); test: hCD70-Fc staining on hCD27+/+mCD27-/- splenocytes preincubated with Ab (ligand blocking); conditions: 10 μg Ab 30 minutes on ice, vs hIgG1 isotype control
T3 construct: from tissue; host or cells: splenocytes from hCD27+/+ mCD27-/- transgenic mice
T3 sequence (P26842 20-260): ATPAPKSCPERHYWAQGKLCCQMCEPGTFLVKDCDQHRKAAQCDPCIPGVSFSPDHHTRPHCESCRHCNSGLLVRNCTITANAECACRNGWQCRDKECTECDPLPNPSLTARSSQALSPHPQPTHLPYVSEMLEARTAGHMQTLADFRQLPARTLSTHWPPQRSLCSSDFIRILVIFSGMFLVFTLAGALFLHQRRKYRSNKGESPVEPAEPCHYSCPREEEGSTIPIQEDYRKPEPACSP
Procedure: Splenocytes from hCD27^+/+mCD27^−/− mice were incubated with 10 μg Ab as indicated for 30 minutes on ice and then stained with a fluorescently labeled human CD70-Fc fusion protein (0.5 μg) and Abs for cell surface markers. Shown is a histogram of hCD70-Fc staining on gated CD4^+CD25^+ Treg cells.

recipient CD3 T-cells = test: Recipient T-cell depletion after CD27 Ab pretreatment (flow cytometry); assay type: in vivo, mice; conditions: 300 μg days -14 and -2, hCD27+/+mCD27-/- mice
Procedure: Spleens and pLNs were collected from one set of mice on day 0 without cell transfusion and from another set of mice 14 days post intravenous (i.v.) transfusion with 2×10^6 CFSE-labeled w.t. CD8 T-cells for the assessment of recipient cell depletion (FIG. 4A) and donor cell expansion (FIG. 4B). Percentages of recipient CD3 T-cells (CD45.1^+CD45.2^−CD3^+) and donor origin CD8 T-cells (CD45.1^−CD45.2^+CD3^+CD8^+) out of total live cells in spleens and pLNs were determined by flow cytometry and the absolute numbers of donor origin cells were calculated based on total cell counts of spleens and pLNs.
These mice were bled and then transfused with 2×10^6 CD8 T-cells on day 0. Shown are the percentages of donor origin cells out of total live cells in the spleen and pLNs after 14 days of in vivo expansion (FIG. 10A) and the percentages of CD3 T cells in recipients' blood on day 0 before transfusion (FIG. 10B). Data are from one representative experiment of two performed, n=5 mice per group, *p<0.05, **p<0.01, ***p<0.001 indicating statistical significance compared to isotype control or between groups as specified by the horizontal line.
CD8 T cells on day 0. Spleens and pLNs were collected on day 14 and processed for flow cytometry analysis. […] CD8, CD4 and Treg cell counts per μl blood were depicted in FIG. 11C (n=6 mice per group).

In the case of “SIINFEKL (Ovalbumin peptide; listed as Gallus gallus) [reference compound]”, the “long-term survival with or without SIINFEKL peptide injection following OT-I T cell transfer” value (E.G7 cells) is reported as “no difference in long-term survival”.

B1: mouse CD70-Fc fusion protein (Fc fusion, UniProt O55237 45-195, looked up)
chain: SKQQQRLLEHPEPHTAELQLNLTVPRKDPTLRWGAGPALGRSFTHGPELEEGHLRIHQDGLYRLHIQVTLANCSSPGSTLQHRATLAVGICSPAAHGISLLRGRFGQDCTVALQRLTYLVHGDVLCTNLTLPLLPSRNADETFFGVQWICP
notes: Fluorescence-labeled; also called mCD70-Fc; not shown: Fc part
B1: binds [1].

B2: varlilumab (antibody, human IgG1, kappa, V domains shown)
VH: QVQLVESGGGVVQPGRSLRLSCAASGFTFSSYDMHWVRQAPGKGLEWVAVIWYDGSNKYYADSVKGRFTISRDNSKNTLYLQMNSLRAEDTAVYYCARGSGNWGFFDYWGQGTLVTVSS
VL: DIQMTQSPSSLSASVGDRVTITCRASQGISRWLAWYQQKPEKAPKSLIYAASSLQSGVPSRFSGSGSGTDFTLTISSLQPEDFATYYCQQYNTYPRTFGQGTKVEIKR
notes: Fully human monoclonal anti-human CD27 antibody; also called 1F5; CDX-1127
B2: no binding [2].

B3: varlimut: a FCD265A mutated mouse IgG1 isotype of varlilumab (antibody, V domains shown)
VH: B2 VH
VL: DIQMTQSPSSLSASVGDRVTITCRASQGISRWLAWYQQKPEKAPKSLIYAASSLQSGVPSRFSGSGSGTDFTLTISSLQPEDFATYYCQQYNTYPRTFGQGTKVEIK
In the case of B3, the “co-stimulatory / agonistic activity (SIINFEKL-specific IFNγ spots number per spleen)” value [3] is reported as “no depleting and agonistic activities”, the “hCD70-Fc staining on gated CD4+CD25+ Treg cells (ligand blocking)” value [4] is reported as “blocks ligand binding” and the “depleting activity (percentages of CD3 T cells in recipients' blood on day 0)” value (recipient CD3 T-cells) is reported as “no depleting and agonistic activities”.
